In general, EC50 refers to the concentration at which the effect is half-maximal. A lower EC50 goes with higher potency in that assay.

Sequences and labels used below:
B1: FVM09 (antibody, V domains shown)
VH: EVQLVQSGAEVKRPGESLTISCKTSGYSFTDSWVAWVRQMPGKGLEWLGSIYPGDSETKYNPSFQGHVTISADKSVTTTYLKWSSLKASDTATYYCVKGSETWGQGVLVTVSS
VL: QLVLTQPASLSASPGASASLTCTFSGGINVAGYNILWYQQKAGSPPRYLLRYKSDSTKDQGSGVPSRFSGSKDASANTGILRISGLQSEDEADYYCAIGHSSGWIFGGGTRLTVL
B2: FVM20 (antibody, V domains shown)
VH: B1 VH with Q6E, D31G, V34I, A35S
VL: B1 VL with Q1N, L2F, V3M, P7S, N34H, L36F, K41N, A42P, T57E
B3: FVM17 (antibody, V domains shown)
VH: B1 VH with V34I, A35S, L48M, E57D, T58A, K59R, V76I, T77S
VL: B1 VL with L2A, L4V, A16T, A42P, Y48F, T57D, K58N, D59V, R67H
B4: FVM04 (antibody, V domains shown)
VH: EVQLVQSGGGLVQPGGSMRLSCEASGLSLSDYFMHWVRQAQGKGLEWIGLIQTKAFTYKTEYPAAVKGRFTISRDDSKNTLYLQMSSLKPEDTALYYCIAVTPDFYYWGQGVLVTVSS
VL: DVVMTQSPSFLSASVGDRVTITCRASQDITINLNWFQHKPGKAPKRLIYVASRLERGVPSRFSGSGSGTEFTLTISSLQPEDFATYYCQQYNNYPLTFGPGTKLDIKRTV

Substitutions are numbered along the chain they refer to.

The target in one assay is SUDV GPddmuc (Sudan virus (SUDV)), Q66814. Description: ELISA. The settings on record: remark: other sources report otherwise. In general terms: In an ELISA, binding on a coated surface is turned into a signal by an enzyme label.
In turn, B1 registered a concentration giving a half-maximal response (EC50) of 7.73 nM.

As to B2, the EC50 is 0.119 nM.

For the molecule B3, the EC50 turned out to be 0.113 nM.

B4 returned an EC50 of 0.164 nM.

For a further assay, the target named is EBOV GPddmuc (Ebola virus (EBOV)), Q05320. Nature of the assay: ELISA. The settings on record: remark: other sources report otherwise.
For the molecule B1, the 50% effective concentration (EC50) is 7.07 nM.

B2 showed a 50% effective concentration (EC50) of 0.081 nM.

B3 gave an EC50 of 0.096 nM.

In turn, B4 gave an EC50 of 0.149 nM.

Values taken from patent US20170334973A1.
